Values quoted from earlier work as cited in PMC4589137.

Biological target: α-melanocyte stimulating hormone (α-MSH) (UniProt P01189)

- Kd: 400 pM
Substance: melanocortin 1 receptor (MC1R) (from UniProt Q01727)
